Residue numbers refer to the chain shown, from its start. Values joined by “and” are separate entries in the source; they are usually repeats but may differ in a detail not shown here. Identical values can stand only once.

The target in assay [1] is T1, cyno IL-33 N-His (cynomolgus monkey).
T1 chain: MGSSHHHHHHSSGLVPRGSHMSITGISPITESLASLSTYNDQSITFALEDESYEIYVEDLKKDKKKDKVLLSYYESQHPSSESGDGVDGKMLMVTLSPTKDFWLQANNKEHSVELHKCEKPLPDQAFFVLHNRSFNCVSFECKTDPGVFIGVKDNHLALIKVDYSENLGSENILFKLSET
The assay is described as follows: SPR Biacore T200, 25 C. As for the experimental part: (§1) The binding kinetics of the anti-IL-33 antibody 10C12.38.H6.87Y.58I IgG4 and each anti-IL-33 antibody listed in Table 5 (RG1-RG20) to IL-33 were measured using surface plasmon resonance (SPR) on a BIACORE® T200 instrument (GE Healthcare). Anti-human Fc or anti-murine Fc (GE Healthcare, #BR-1008-39 or BR-1008-38, respectively) was immobilized on a CM5 sensor chip via amine-based coupling according to the manufacturer's protocol. Surfaces were used to capture monoclonal human IgG4 and monoclonal murine IgGs for kinetic studies. Antibody binding was measured to human IL-33 (R&D systems, #3625-IL-010/CF) and cyno IL-33 N-His (SEQ ID NO: 317) (Genentech, Inc.). A three-fold concentration series of cytokine with a range of 3.7 to 100 nM was used for the experiments. Sensograms for binding of IL-33 were recorded using an injection time of 4 min with a flow rate of 30 μl/minute with a running buffer of 0.01 M N-(2-Acetamido)iminodiacetic acid (ADA) pH 7.4, 0.15 M NaCl, 3 mM EDTA, and 0.05% TWEEN®-20. After injection, disassociation of the ligand from the antibody was monitored for 10 min in running buffer. The surface was regenerated in between cycles with an injection of 3 M magnesium chloride or Glycine-HCl pH 1.7. All binding experiments were performed at a temperature of 25′C and 37° C. After subtraction of a blank which contained running buffer only, sensograms observed for IL-33 binding to anti-IL-33 antibodies were analyzed using a 1:1 Langmuir binding model with software supplied by the manufacturer to calculate the kinetics and binding constants, including the dissociation constant (KD). Dissociative half-lives (t_{1/2}) were calculated from the kinetic rate constants. KD (M)=koff/kₒₙ and t_{1/2} (min)=ln(2)/(60*koff). […] In Tables 6-9, *IC indicates the result is inconclusive due to weak capture of antibody was observed, leading to poor binding data.

Assay [2] concerns the target T1, cyno IL-33 N-His. The assay is described as follows: SPR Biacore T200, 37 C. As for the experimental part:
as §1

For another assay, the target named is T2, biotinylated cyno IL-33 (cynomolgus monkey, UniProt A0A2K5W3I1 112-269, biotin-labeled with EZ-LINK NHS-PEG4-Biotin).
T2 construct: also called biotin-cyIL-33
T2 sequence: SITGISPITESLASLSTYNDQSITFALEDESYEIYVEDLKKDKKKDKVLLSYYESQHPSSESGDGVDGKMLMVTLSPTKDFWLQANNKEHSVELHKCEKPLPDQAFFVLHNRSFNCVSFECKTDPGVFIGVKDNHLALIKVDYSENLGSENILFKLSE
The assay is described as follows: competitive ELISA, biotin-cyIL-33 to coated hST2-Fc. How it is done:
The ability of the anti-IL-33 antibody 10C12.38.H6.87Y.58I IgG4 and each anti-IL-33 antibody listed in Table 5 (RG1-RG20) to block either human IL-33 or cyno IL-33 binding to human ST2 receptor was tested in a competitive binding ELISA. Briefly, 1 μg/ml of recombinant human ST2-Fc chimera protein prepared in coating buffer (50 mM sodium carbonate, pH 9.6) was coated on a 384-well MAXISORP® plate (Nalgene Nunc International; Rochester, N.Y.) and incubated overnight at 4° C. On the next day, non-specific binding was blocked with PBS containing 0.5% (w/v) solution of bovine serum albumin (BSA). Fixed concentrations of biotinylated human or cyno IL-33 prepared in assay buffer (25 mM PBS, pH 7.2, 0.1% BSA, 0.05% TWEEN®-20) were mixed with an equal volume of serially-diluted anti-IL-33 antibodies or assay buffer alone and incubated for 1 h at room temperature. The final assay concentrations of biotinylated human IL-33 or cyno IL-33 were 20 pM and 45 pM, respectively, and the final assay concentration of each antibody ranged from 0-300 nM. The pre-mixed solutions were added to the ST2-Fc coated plate and incubated for 1 h at room temperature. The binding of biotinylated IL-33 to coated ST2-Fc was detected by the sequential addition of Streptavidin Poly-HRP80 (Fitzgerald; Buckinghamshire, UK) and 3,3′,5,5′-tetramethyl benzidine (TMB) Microwell Peroxidase Substrate System (KPL; Gaithersburg, Md.). The absorbance (450 nm) was recorded using a […] ASCENT® plate reader (Thermo Scientific; Rockford, Ill.). The binding activity (%) of biotin-IL-33 to ST2 in the presence of anti-IL-33 was plotted as a function of antibody concentration. The data generated were fitted to a four-parameter equation to determine IC₅₀ values for each antibody (FIGS. 25A and 25B) using Prism software (Graphpad Software; La Jolla, Calif.). The maximum blocking (%) of each antibody was calculated as the ratio of the reduction in signal measured in the presence of antibody relative to the difference between the signal with IL-33 alone and background measurements.

Assay [3] has as its target T3, human IL-33 (Genentech, huIL33.his) (human, UniProt O95760 112-270).
T3 sequence (looked up): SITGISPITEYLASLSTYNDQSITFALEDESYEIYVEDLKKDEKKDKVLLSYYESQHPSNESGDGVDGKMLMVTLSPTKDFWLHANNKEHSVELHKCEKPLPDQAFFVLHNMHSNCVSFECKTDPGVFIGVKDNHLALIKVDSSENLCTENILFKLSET
The assay is described as follows: SPR Biacore.

Assay [4] deals with T4, human IL-33 (cell-based blocking assay of Example 2) (human, UniProt O95760 112-270).
T4 sequence (looked up): T3 sequence (looked up)
Put plainly: cell-based or functional assay.

In assay [5] the target is T5, cyno IL-33 (cell-based blocking assay of Example 2) (cynomolgus monkey, UniProt A0A2K5W3I1 95-269).
T5 sequence: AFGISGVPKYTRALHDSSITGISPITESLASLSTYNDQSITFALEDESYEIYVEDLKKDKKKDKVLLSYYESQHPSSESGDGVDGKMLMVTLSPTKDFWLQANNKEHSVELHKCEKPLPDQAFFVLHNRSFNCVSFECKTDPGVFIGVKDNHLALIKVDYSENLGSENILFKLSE
Put plainly: cell-based or functional assay.

B1: H4H9670P (antibody, V domains shown)
VH: EVQLVESGGGLVQPGGSLRLSCAASGFTLSSYAMSWVRQAPGKGLEWVSAISGSGGSTYYADSVKGRFTISRDNSKNSLYLQLNSLRAEDTAVYYCAKTLYTTSWYGGFQHWGQGTLVTVSS
VL: DIQMTQSPSSVSASIGDRVTITCRASQGISSWLAWYQQKPGKVPKLLIYAASSLQSGFPSRFSGSGSGTDFTLTISSLQPEDFATYYCQQTHSFPWTVGQGTKVEIK
On to B1, for which, in the assay with cyno IL-33 N-His [1], the Kd is 2.63 nM, the koff worked out at 0.000557 s⁻¹, the kon was 212000 M⁻¹ s⁻¹ and the t1/2 was 21 min. In addition, in the assay with cyno IL-33 N-His [2], the Kd amounted to 5.82 nM, the koff came to 0.00221 s⁻¹, the on-rate (kon) was 380000 M⁻¹ s⁻¹ and the t1/2 was 5 min. Also, in the assay with biotinylated cyno IL-33, the IC50 is 150 nM and the “Maximum Blocking” value amounted to 27%.

B2: 10H2.36.F10.30V.54D (antibody, V domains shown)
VH: EVQLVESGGGLVQPGGSLRLSCAASGFTFSNYWMNWVRQAPGKGLEWMAEITLKFNDYSTHYAESVKGRFTISRDNSKNTVYLQMNSLRAEDTAVYYCARRNYGNWYINVWGQGTLVTVSS
VL: DIVMTQSPDSLAVSLGERATINCRASESVDKFGVSFLNWYQQKPGQPPKLLIFVASSQGSGVPDRFSGSGSGTDFTLTISSLQAEDVAVYYCQQSKDIPYTFGQGTKVEIK
notes: Humanized variant of 10H2
Take B2: in assay [3], the Kd came out at 0.22 nM. Further, the “Cell assay (hu) IC90” value in assay [4] is 0.344 µg/mL and 2.27 nM. For the same molecule, in assay [5], the “Cell assay (cy) IC90” value is > 1.5 µg/mL and > 9.9 nM.

B3: 2B6.54S (antibody, V domains shown)
VH: EVQLVQSGAEVKKPGASVKVSCKASGYTFSDYNMNWVRQAPGQGLESIGDINPKSGDTFYNQNFKDRATLTIDKSTSTAYLELSSLRSEDTAVYYCARHYYYGSSYGGFVYWGQGTLVTVSS
VL: DIQMTQSPSSLSASVGDRVTITCHASQNINVWLSWYQQKPGKNPKLLIYAASKLHTGVPSRFSGSGSGTDFTLTISSLQPEDFATYYCQQGQSYPLTFGQGTKVEIK
notes: Humanized variant of 2B6
B3 had a Kd in assay [3] of 336 nM.

B4: 2B6.55A (NA) (antibody, V domains shown)
VH: B3 VH with S55N, G56A
VL: B3 VL
notes: Humanized variant of 2B6
In the case of B4, the Kd in assay [3] stood at 0.363 nM.

B5: H4H9672P (antibody, V domains shown)
VH: EVQLVESGGGLVQPGGSLRLSCAASGFTLRSYVMYWVRQGPGKGLEGVSGISGSSGGTYYTDSVKGRFTISRDNSKNTLFLQMNSLRAEDTAVYFCARSVYSTTWYGGFQHWGQGTLVTVSS
VL: DIQMTQSPSSVSVSVGDRVTITCRASQVISSWLAWYQLKPGKAPKLLIYAASSLQSGVPSRFSGSGSGTDFTLTISGLQPEDFAVYYCQQTNSFPLTFGGGTKVEIK
Take B5: in the assay with cyno IL-33 N-His [1], the Kd was 5.74 nM, the koff amounted to 0.0019 s⁻¹, the kon came to 331000 M⁻¹ s⁻¹ and the t1/2 came out at 6 min. In the assay with cyno IL-33 N-His [2], the affinity, expressed as Kd, was 13 nM; the koff was 0.00757 s⁻¹; the kon amounted to 584000 M⁻¹ s⁻¹; the t1/2 was 2 min.

B6: H4H9664P (antibody, V domains shown)
VH: QVQLVESGGGVVQPGRSLRLSCAASGFTFSSYGLHWVRQSPGKGLEWVALISYDGSNKYYADSVKGRFTISRDNSKNTLYLQMNSLRPEDTAGYFCAKSLYTTSWYGGFDYWGQGTLVTVSS
VL: DIQMTQSPSSVSASVGDRVTITCRASQGIRSWLAWYQQKPGKAPNLLIYAASSLQSGVPSRFSGSGSGTDFTLTISSLQPEDFATYYCQQANSFPPTFGPGTKVDIK
As for B6, in the assay with cyno IL-33 N-His [1], binding was put at a Kd of 5.62 nM, the off-rate (koff) came out at 0.000556 s⁻¹, the kon amounted to 99000 M⁻¹ s⁻¹ and the t1/2 came out at 21 min. In the assay with cyno IL-33 N-His [2], the Kd turned out to be 10.4 nM, the koff was 0.00213 s⁻¹, the kon is 205000 M⁻¹ s⁻¹ and the t1/2 amounted to 5 min. In addition, the “Maximum Blocking” value with biotinylated cyno IL-33 is 10%.

B7: H4H9667P (antibody, V domains shown)
VH: EVQLVESGGGLVQPGGSLRLSCAASGFTFSTYSMHWVRQAPGKGLEYVSTINNNGDTTYYADSVKGRFTISRDNSKNTLYLQLGSLRPEDMAVYYCARQTYTSSWYGGFDSWGQGTLVTVSS
VL: B6 VL with R30T, N45K, S53N, S76T, F94L, P96F
On to B7, for which, in the assay with cyno IL-33 N-His [1], the Kd turned out to be 2.83 nM, the koff was determined as 0.00059 s⁻¹, the kon came out at 208000 M⁻¹ s⁻¹ and the t1/2 amounted to 20 min. In the assay with cyno IL-33 N-His [2], this molecule gave a Kd of 5.38 nM, a koff of 0.00214 s⁻¹, an association rate constant (kon) of 398000 M⁻¹ s⁻¹ and a t1/2 of 5 min. Also, the “Maximum Blocking” value with biotinylated cyno IL-33 is 7%.

B8: H4H9666P (antibody, V domains shown)
VH: QVQLVQSGAEVKKPGASVKVSCKASGYTFTSYGISWVRQAPGQGLEWMGWIRAYNGYTNYAQKFQGRVTMTTDTSTNTAYMELRTLNSDDTAVYYCARDRYSGSFHGNFDYWGQGTLVTVSS
VL: B6 VL with R30F, N45K, L46V, S53N, Q55E, F94L, P96L, P100G, D105E
In the assay with cyno IL-33 N-His [1], B8 had a dissociation constant Kd of 38 nM, a koff of 0.00625 s⁻¹, a kon of 164000 M⁻¹ s⁻¹ and a t1/2 of 2 min. For the same molecule, in the assay with cyno IL-33 N-His [2], the Kd is 47.4 nM, the koff was determined as 0.0139 s⁻¹, the kon was 293000 M⁻¹ s⁻¹ and the t1/2 was 1 min.

B9: H4H9676P (antibody, V domains shown)
VH: EVQLVESGGGLVQPGGSLRLSCSASGFTFSSYAMNWVRQAPGKGLEWVTAISGSGGGTYYADSVKGRFTISRDNSKNSLFLQLNSLRAEDTAVYYCAKQTYTSSWYGGFDIWGQGTMVTVSS
VL: B6 VL with I29F, R30S, K39I, N45K, S53R, S63R, P96L, P100G, D105E
As for B9, in the assay with cyno IL-33 N-His [1], binding was characterised by a dissociation constant (Kd) of 3.15 nM, the koff was determined as 0.00248 s⁻¹, the on-rate (kon) turned out to be 787000 M⁻¹ s⁻¹ and the t1/2 turned out to be 5 min. In the assay with cyno IL-33 N-His [2], binding was put at a Kd of 6.93 nM, the koff turned out to be 0.0111 s⁻¹, the kon was 1.6e+06 M⁻¹ s⁻¹ and the t1/2 was found to be 1 min.

(Values after patent US20190092852A1 (Genentech, published 2019).)
